Assay [1] deals with C.1086 SOSIP gp140 (HIV-1 (clade C, C.1086)). Put plainly: SEC. (SEC sorts molecules by how far they enter the pores of the column.)
The target in assay [2] is C.1086 NFL (native flexibly linked, with I559P) gp140 trimer (HIV-1 (clade C, C.1086)). Put plainly: SEC.
The target in assay [3] is C.1086 UFO-v2-RQY^173 gp140 trimer (UFO-v2 with K166R/H170Q/H173Y) (HIV-1 (clade C, C.1086)). Put plainly: native gel or EMSA. (A gel shift assay detects complexes by their altered migration in electrophoresis.)
Assay [4] shares this target. Put plainly: negative-stain electron microscopy.
The target of assay [5] is C.1086 UFO-v2 gp140 trimer (UFO with E64K/T316W/A433P) (HIV-1 (clade C, C.1086)). Put plainly: SEC.
Assay [6] has as its target C.1086 UFO-v2-RQH^173 gp140 trimer (UFO-v2 with K166R/H170Q, H173 kept) (HIV-1 (clade C, C.1086)). Put plainly: native gel or EMSA.
Assay [7] has the same target. Put plainly: negative-stain electron microscopy.
Assay [8] shares this target. Put plainly: SEC.

The stoichiometry N is a count of units in the complex or per binding partner. In assay [1], C.1086 SOSIP gp140 yielded a stoichiometry N of 3.

With “C.1086 NFL (native flexibly linked, with I559P) gp140 trimer”, in assay [2], the stoichiometry N is 3.

As for “C.1086 UFO-v2-RQY^173 gp140 trimer (UFO-v2 with K166R/H170Q/H173Y)”, the stoichiometry N in assay [3] and in assay [4] was 3 throughout.

“C.1086 UFO-v2 gp140 trimer (UFO with E64K/T316W/A433P)” gave a stoichiometry N in assay [5] of 3.

Regarding “C.1086 UFO-v2-RQH^173 gp140 trimer (UFO-v2 with K166R/H170Q, H173 kept)”, the stoichiometry N in assay [6], in assay [7] and in assay [8] was 3 throughout.

Values taken from paper PMC8982139.
